Consider 9 molecules from patent US9175305B2, “Mutant hydroxyphenylpyruvate dioxygenase polypeptides and methods of use” (Syngenta Participations AG, priority 2009, dated 2015).

B1: M325L: M325L mutant of HPPD SEQ ID NO:14 (protein)
chain: MPPTPATATGAAAAAVTPEHAARSFPRVVRVNPRSDRFPVLSFHHVELWCADAASAAGRFSFALGAPLAARSDLSTGNSAHASLLLRSGALAFLFTAPYAPPPQEAATAATASIPSFSADAARTFAAAHGLAVRSVGVRVADAAEAFRVSVAGGARPAFAPADLGHGFGLAEVELYGDVVLRFVSYPDETDLPFLPGFERVSSPGAVDYGLTRFDHVVGNVPEMAPVIDYMKGFLGFHEFAEFTAEDVGTTESGLNSVVLANNSEAVLLPLNEPVHGTKRRSQIQTYLEYHGGPGVQHIALASNDVLRTLREMRARTPMGGFEFLAPPQAKYYEGVRRIAGDVLSEEQIKECQELGVLVDRDDQGVLLQIFTKPVGDRPTFFLEMIQRIGCMEKDEVGQEYQKGGCGGFGKGNFSELFKSIEDYEKSLEVKQSVVAQKS
modifications: mutant HPPD polypeptide
B2: A326R: A326R mutant of HPPD SEQ ID NO:14 (protein)
chain: MPPTPATATGAAAAAVTPEHAARSFPRVVRVNPRSDRFPVLSFHHVELWCADAASAAGRFSFALGAPLAARSDLSTGNSAHASLLLRSGALAFLFTAPYAPPPQEAATAATASIPSFSADAARTFAAAHGLAVRSVGVRVADAAEAFRVSVAGGARPAFAPADLGHGFGLAEVELYGDVVLRFVSYPDETDLPFLPGFERVSSPGAVDYGLTRFDHVVGNVPEMAPVIDYMKGFLGFHEFAEFTAEDVGTTESGLNSVVLANNSEAVLLPLNEPVHGTKRRSQIQTYLEYHGGPGVQHIALASNDVLRTLREMRARTPMGGFEFMRPPQAKYYEGVRRIAGDVLSEEQIKECQELGVLVDRDDQGVLLQIFTKPVGDRPTFFLEMIQRIGCMEKDEVGQEYQKGGCGGFGKGNFSELFKSIEDYEKSLEVKQSVVAQKS
modifications: mutant HPPD polypeptide
B3: L358M: L358M mutant of HPPD SEQ ID NO:14 (apparently the change of SEQ ID NO:24) (protein)
chain: MPPTPATATGAAAAAVTPEHAARSFPRVVRVNPRSDRFPVLSFHHVELWCADAASAAGRFSFALGAPLAARSDLSTGNSAHASLLLRSGALAFLFTAPYAPPPQEAATAATASIPSFSADAARTFAAAHGLAVRSVGVRVADAAEAFRVSVAGGARPAFAPADLGHGFGLAEVELYGDVVLRFVSYPDETDLPFLPGFERVSSPGAVDYGLTRFDHVVGNVPEMAPVIDYMKGFLGFHEFAEFTAEDVGTTESGLNSVVLANNSEAVLLPLNEPVHGTKRRSQIQTYLEYHGGPGVQHIALASNDVLRTLREMRARTPMGGFEFMAPPQAKYYEGVRRIAGDVLSEEQIKECQELGVMVDRDDQGVLLQIFTKPVGDRPTFFLEMIQRIGCMEKDEVGQEYQKGGCGGFGKGNFSELFKSIEDYEKSLEVKQSVVAQKS
modifications: mutant HPPD polypeptide
B4: K411T: K411T mutant of HPPD SEQ ID NO:14 (protein)
chain: MPPTPATATGAAAAAVTPEHAARSFPRVVRVNPRSDRFPVLSFHHVELWCADAASAAGRFSFALGAPLAARSDLSTGNSAHASLLLRSGALAFLFTAPYAPPPQEAATAATASIPSFSADAARTFAAAHGLAVRSVGVRVADAAEAFRVSVAGGARPAFAPADLGHGFGLAEVELYGDVVLRFVSYPDETDLPFLPGFERVSSPGAVDYGLTRFDHVVGNVPEMAPVIDYMKGFLGFHEFAEFTAEDVGTTESGLNSVVLANNSEAVLLPLNEPVHGTKRRSQIQTYLEYHGGPGVQHIALASNDVLRTLREMRARTPMGGFEFMAPPQAKYYEGVRRIAGDVLSEEQIKECQELGVLVDRDDQGVLLQIFTKPVGDRPTFFLEMIQRIGCMEKDEVGQEYQKGGCGGFGTGNFSELFKSIEDYEKSLEVKQSVVAQKS
modifications: mutant HPPD polypeptide
B5: S415K: S415K mutant of SEQ ID NO:14 (protein)
chain: MPPTPATATGAAAAAVTPEHAARSFPRVVRVNPRSDRFPVLSFHHVELWCADAASAAGRFSFALGAPLAARSDLSTGNSAHASLLLRSGALAFLFTAPYAPPPQEAATAATASIPSFSADAARTFAAAHGLAVRSVGVRVADAAEAFRVSVAGGARPAFAPADLGHGFGLAEVELYGDVVLRFVSYPDETDLPFLPGFERVSSPGAVDYGLTRFDHVVGNVPEMAPVIDYMKGFLGFHEFAEFTAEDVGTTESGLNSVVLANNSEAVLLPLNEPVHGTKRRSQIQTYLEYHGGPGVQHIALASNDVLRTLREMRARTPMGGFEFMAPPQAKYYEGVRRIAGDVLSEEQIKECQELGVLVDRDDQGVLLQIFTKPVGDRPTFFLEMIQRIGCMEKDEVGQEYQKGGCGGFGKGNFKELFKSIEDYEKSLEVKQSVVAQKS
modifications: mutant HPPD polypeptide
B6: S415Q: S415Q mutant of SEQ ID NO:14 (protein)
chain: MPPTPATATGAAAAAVTPEHAARSFPRVVRVNPRSDRFPVLSFHHVELWCADAASAAGRFSFALGAPLAARSDLSTGNSAHASLLLRSGALAFLFTAPYAPPPQEAATAATASIPSFSADAARTFAAAHGLAVRSVGVRVADAAEAFRVSVAGGARPAFAPADLGHGFGLAEVELYGDVVLRFVSYPDETDLPFLPGFERVSSPGAVDYGLTRFDHVVGNVPEMAPVIDYMKGFLGFHEFAEFTAEDVGTTESGLNSVVLANNSEAVLLPLNEPVHGTKRRSQIQTYLEYHGGPGVQHIALASNDVLRTLREMRARTPMGGFEFMAPPQAKYYEGVRRIAGDVLSEEQIKECQELGVLVDRDDQGVLLQIFTKPVGDRPTFFLEMIQRIGCMEKDEVGQEYQKGGCGGFGKGNFQELFKSIEDYEKSLEVKQSVVAQKS
modifications: mutant HPPD polypeptide
B7: L269M: L269M mutant of SEQ ID NO:14 (protein)
chain: MPPTPATATGAAAAAVTPEHAARSFPRVVRVNPRSDRFPVLSFHHVELWCADAASAAGRFSFALGAPLAARSDLSTGNSAHASLLLRSGALAFLFTAPYAPPPQEAATAATASIPSFSADAARTFAAAHGLAVRSVGVRVADAAEAFRVSVAGGARPAFAPADLGHGFGLAEVELYGDVVLRFVSYPDETDLPFLPGFERVSSPGAVDYGLTRFDHVVGNVPEMAPVIDYMKGFLGFHEFAEFTAEDVGTTESGLNSVVLANNSEAVLMPLNEPVHGTKRRSQIQTYLEYHGGPGVQHIALASNDVLRTLREMRARTPMGGFEFMAPPQAKYYEGVRRIAGDVLSEEQIKECQELGVLVDRDDQGVLLQIFTKPVGDRPTFFLEMIQRIGCMEKDEVGQEYQKGGCGGFGKGNFSELFKSIEDYEKSLEVKQSVVAQKS
modifications: mutant HPPD polypeptide
B8: I421L: I421L mutant of SEQ ID NO:14 (protein)
chain: MPPTPATATGAAAAAVTPEHAARSFPRVVRVNPRSDRFPVLSFHHVELWCADAASAAGRFSFALGAPLAARSDLSTGNSAHASLLLRSGALAFLFTAPYAPPPQEAATAATASIPSFSADAARTFAAAHGLAVRSVGVRVADAAEAFRVSVAGGARPAFAPADLGHGFGLAEVELYGDVVLRFVSYPDETDLPFLPGFERVSSPGAVDYGLTRFDHVVGNVPEMAPVIDYMKGFLGFHEFAEFTAEDVGTTESGLNSVVLANNSEAVLLPLNEPVHGTKRRSQIQTYLEYHGGPGVQHIALASNDVLRTLREMRARTPMGGFEFMAPPQAKYYEGVRRIAGDVLSEEQIKECQELGVLVDRDDQGVLLQIFTKPVGDRPTFFLEMIQRIGCMEKDEVGQEYQKGGCGGFGKGNFSELFKSLEDYEKSLEVKQSVVAQKS
modifications: mutant HPPD polypeptide
B9: A326S: A326S mutant of SEQ ID NO:14 (protein)
chain: MPPTPATATGAAAAAVTPEHAARSFPRVVRVNPRSDRFPVLSFHHVELWCADAASAAGRFSFALGAPLAARSDLSTGNSAHASLLLRSGALAFLFTAPYAPPPQEAATAATASIPSFSADAARTFAAAHGLAVRSVGVRVADAAEAFRVSVAGGARPAFAPADLGHGFGLAEVELYGDVVLRFVSYPDETDLPFLPGFERVSSPGAVDYGLTRFDHVVGNVPEMAPVIDYMKGFLGFHEFAEFTAEDVGTTESGLNSVVLANNSEAVLLPLNEPVHGTKRRSQIQTYLEYHGGPGVQHIALASNDVLRTLREMRARTPMGGFEFMSPPQAKYYEGVRRIAGDVLSEEQIKECQELGVLVDRDDQGVLLQIFTKPVGDRPTFFLEMIQRIGCMEKDEVGQEYQKGGCGGFGKGNFSELFKSIEDYEKSLEVKQSVVAQKS
modifications: mutant HPPD polypeptide

A short description of one data set: Km and kcat of expressed HPPDs (HPLC/UV quantitation of homogentisate). The format is biochemical, Avena sativa. As to conditions: for V217I, L271I, L271V, V258M, A326R estimated from initial rates in cell extracts, pH 7.0, 25° C., 120 μM HPP. Here is the method:
The assay solution was transferred to Chromacol 03-CVG HPLC vials, sealed and the amount of homogentisate formed in a 40 μl aliquot determined by injection onto a reverse phase Aqua C18 5μ 75×4.6 mm HPLC column running 5.5% acetonitrile 0.1% TFA (Buffer A) at 1.5 ml/min. The column was eluted at 1.5 ml/minute using a 2 minute wash in buffer A, followed by a 2 minute wash in a 30/70 mixture of buffer A and 100% Acetonitrile, and a further 3.5 minute wash in buffer A. The elution of homogentisate was monitored by UV at 292 nm and the amount formed in each reaction quantified by comparison with a standard calibration curve.
Km and Vmax values were determined (for example FIG. 1) using a non linear least squares fit using Grafit 4™ software (Erithacus Software, Middlesex, UK). Kcat values were determined by dividing the maximum rate, Vmax expressed in nmol/second by the number of nmoles of HPPD enzyme (based on the concentration determined by active-site titration).
Experiments were carried out as described for Table 4. ‘Sulc’ denotes sulcotrione and ‘nd’ means ‘no data’. For V217I, L271I, L271V, V258M and A326R, the relative values of kcat were estimated from comparisons of the initial rates in cell extracts of similarly prepared and expressed HPPDs in conventional enzyme activity assays at pH 7.0, 25° C. and at a substrate concentration of 120 μM HPP.
Consider B1, for which the “Rate: kcat relative to non-mutated HPPD SEQ ID NO:14” value is 1.2.

Consider B2, for which the “Rate: kcat relative to non-mutated HPPD SEQ ID NO:14” value is 1.2.

Regarding B3, the “Rate: kcat relative to non-mutated HPPD SEQ ID NO:14” value is listed as 0.7.

As for B4, the “Rate: kcat relative to non-mutated HPPD SEQ ID NO:14” value was 1.

Another data set is described as follows: catalytic activity and herbicide resistance of mutants of SEQ ID NO:14 in extracts. The format is biochemical, Avena sativa.
Settings: not given
The source says:
These further mutations can all be optionally combined with the resistance conferring mutations to produce catalytically active variants of HPPD herbicide resistant enzymes of the current invention.
For the molecule B5, the “catalytic activity and resistance to sulcotrione relative to control, unmutated SEQ ID NO:14” value is on record as “neutral mutations”.

For the molecule B6, the “catalytic activity and resistance to sulcotrione relative to control, unmutated SEQ ID NO:14” value is on record as “neutral mutations”.

Take B7: the “catalytic activity and resistance to sulcotrione relative to control, unmutated SEQ ID NO:14” value is “neutral mutations”.

For B8, the “catalytic activity and resistance to sulcotrione relative to control, unmutated SEQ ID NO:14” value is “neutral mutations”.

For the molecule B9, the “catalytic activity and resistance to sulcotrione relative to control, unmutated SEQ ID NO:14” value is reported as “neutral mutations”.
